Results taken from patent US7354734B2, “Fungal proteins and nucleic acids encoding same” (priority 2003, dated 2008).
“Also recorded” adds a separate entry of the source.

B1: fuLAP2: A. fumigatus leucine aminopeptidase, 498 amino acid residues (SEQ ID NO: 9) (protein, listed as Aspergillus fumigatus)
chain: MKLLYLTSFASLAVANGPGWDWKPRVHPKVLPQMIHLWDLLQGAQQLEDFAYAYPERNRVFGGRAHEDTVNYLYRELKKTGYYDVYKQPQVHQWTRADQALTVDGQSYDATTMTYSPSVNATAPLAVVNNLGCVEADYPADLTGKIALISRGECTFATKSVLSAKAGAAAALVYNNIEGSMAGTLGGATSELGAYAPIAGISLADGQALIQMIQAGTVTANLWIDSQVENRTTYNVIAQTKGGDPNNVVALGGHTDSVEAGPGINDDGSGIISNLVVAKALTRFSVKNAVRFCFWTAEEFGLLGSNYYVNSLNATEQAKIRLYLNFDMIASPNYALMIYDGDGSAFNLTGPAGSAQIERLFEDYYTSIRKPFVPTEFNGRSDYQAFILNGIPAGGLFTGAEAIKTEEQAQLFGGQAGVALDANYHAKGDNMTNLNREAFLINSRATAFAVATYANSLDSIPPRNMTTVVKRSQLEQAMKRTPHTHTGGTGCYKDRVEQ
B2: pkLAP: commercially available microsomal LAP from porcine kidney (MEROPS>M1 family), Sigma (protein, UniProt P15145 2-963, looked up)
Aminopeptidase N: AKGFYISKALGILGILLGVAAVATIIALSVVYAQEKNKNAEHVPQAPTSPTITTTAAITLDQSKPWNRYRLPTTLLPDSYNVTLRPYLTPNADGLYIFKGKSIVRLLCQEPTDVIIIHSKKLNYTTQGHMVVLRGVGDSQVPEIDRTELVELTEYLVVHLKGSLQPGHMYEMESEFQGELADDLAGFYRSEYMEGNVKKVLATTQMQSTDARKSFPCFDEPAMKATFNITLIHPNNLTALSNMPPKGSSTPLAEDPNWSVTEFETTPVMSTYLLAYIVSEFQSVNETAQNGVLIRIWARPNAIAEGHGMYALNVTGPILNFFANHYNTSYPLPKSDQIALPDFNAGAMENWGLVTYRENALLFDPQSSSISNKERVVTVIAHELAHQWFGNLVTLAWWNDLWLNEGFASYVEYLGADHAEPTWNLKDLIVPGDVYRVMAVDALASSHPLTTPAEEVNTPAQISEMFDSISYSKGASVIRMLSNFLTEDLFKEGLASYLHAFAYQNTTYLDLWEHLQKAVDAQTSIRLPDTVRAIMDRWTLQMGFPVITVDTKTGNISQKHFLLDSESNVTRSSAFDYLWIVPISSIKNGVMQDHYWLRDVSQAQNDLFKTASDDWVLLNVNVTGYFQVNYDEDNWRMIQHQLQTNLSVIPVINRAQVIYDSFNLATAHMVPVTLALDNTLFLNGEKEYMPWQAALSSLSYFSLMFDRSEVYGPMKKYLRKQVEPLFQHFETLTKNWTERPENLMDQYSEINAISTACSNGLPQCENLAKTLFDQWMSDPENNPIHPNLRSTIYCNAIAQGGQDQWDFAWGQLQQAQLVNEADKLRSALACSNEVWLLNRYLGYTLNPDLIRKQDATSTINSIASNVIGQPLAWDFVQSNWKKLFQDYGGGSFSFSNLIQGVTRRFSSEFELQQLEQFKKNNMDVGFGSGTRALEQALEKTKANIKWVKENKEVVLNWFIEHS

Assays:
[1] = system: gliadin 14mer PQPQLPYPQPQLPY (fragment 82-95 of α/β gliadin AIV); type: biochemical, wheat; settings: 4 h, 37° C.
[2] = system: gliadin 33mer (fragment 57-89 of gliadin MM1); test: Digestion of gliadin 33mer (RP-HPLC, ESI-MS); type: biochemical, wheat; settings: 37° C.; for digestion of gliadin 33mer, mixed with ruDPPIV: enzyme plus ruDPPIV (DPPIV)
[3] = type: biochemical; settings: substrate Lys(Abz)Pro-PropNA 5 mM, 37° C., 60 min
[4] = type: biochemical; settings: for hydrolytic activity toward Ala-AMC in comparison to Leu-MCA used as a standard: substrate Ala-AMC 5 mM; for hydrolytic activity toward Ala-AMC in comparison to Leu-MCA used as a standard / hydrolytic activity toward Arg-AMC in comparison to Leu-MCA used as a standard / hydrolytic activity toward Asn-AMC in comparison to Leu-MCA used as a standard / hydrolytic activity toward Asp-AMC in comparison to Leu-MCA used as a standard / hydrolytic activity toward Cys-AMC in comparison to Leu-MCA used as a standard / hydrolytic activity toward Gln-AMC in comparison to Leu-MCA used as a standard / hydrolytic activity toward Glu-AMC in comparison to Leu-MCA used as a standard / hydrolytic activity toward Gly-AMC in comparison to Leu-MCA used as a standard / hydrolytic activity toward Gly-Pro-AMC in comparison to Leu-MCA used as a standard / hydrolytic activity toward His-AMC in comparison to Leu-MCA used as a standard / hydrolytic activity toward Hyp-AMC in comparison to Leu-MCA used as a standard / hydrolytic activity toward Ile-AMC in comparison to Leu-MCA used as a standard / hydrolytic activity toward Leu-AMC in comparison to Leu-MCA used as a standard / hydrolytic activity toward Lys-AMC in comparison to Leu-MCA used as a standard / hydrolytic activity toward Met-AMC in comparison to Leu-MCA used as a standard / hydrolytic activity toward Phe-AMC in comparison to Leu-MCA used as a standard / hydrolytic activity toward Pro-AMC in comparison to Leu-MCA used as a standard / hydrolytic activity toward Pyr-AMC in comparison to Leu-MCA used as a standard / hydrolytic activity toward Ser-AMC in comparison to Leu-MCA used as a standard / hydrolytic activity toward Thr-AMC in comparison to Leu-MCA used as a standard / hydrolytic activity toward Val-AMC in comparison to Leu-MCA used as a standard: 37° C., 60 min; for hydrolytic activity toward Arg-AMC in comparison to Leu-MCA used as a standard: substrate Arg-AMC 5 mM; for hydrolytic activity toward Asn-AMC in comparison to Leu-MCA used as a standard: substrate Asn-AMC 5 mM; for hydrolytic activity toward Asp-AMC in comparison to Leu-MCA used as a standard: substrate Asp-AMC 5 mM; for hydrolytic activity toward Cys-AMC in comparison to Leu-MCA used as a standard: substrate Cys-AMC 5 mM; for hydrolytic activity toward Gln-AMC in comparison to Leu-MCA used as a standard: substrate Gln-AMC 5 mM; for hydrolytic activity toward Glu-AMC in comparison to Leu-MCA used as a standard: substrate Glu-AMC 5 mM; for hydrolytic activity toward Gly-AMC in comparison to Leu-MCA used as a standard: substrate Gly-AMC 5 mM; for hydrolytic activity toward Gly-Pro-AMC in comparison to Leu-MCA used as a standard: substrate Gly-Pro-AMC 5 mM; for hydrolytic activity toward His-AMC in comparison to Leu-MCA used as a standard: substrate His-AMC 5 mM; for hydrolytic activity toward Hyp-AMC in comparison to Leu-MCA used as a standard: substrate Hyp-AMC 5 mM; for hydrolytic activity toward Ile-AMC in comparison to Leu-MCA used as a standard: substrate Ile-AMC 5 mM; for hydrolysis of Leu-AMC: substrate Leu-AMC; for hydrolytic activity toward Leu-AMC in comparison to Leu-MCA used as a standard: substrate Leu-AMC 5 mM; for hydrolytic activity toward Lys-AMC in comparison to Leu-MCA used as a standard: substrate Lys-AMC 5 mM; for hydrolytic activity toward Met-AMC in comparison to Leu-MCA used as a standard: substrate Met-AMC 5 mM; for hydrolytic activity toward Phe-AMC in comparison to Leu-MCA used as a standard: substrate Phe-AMC 5 mM; for hydrolytic activity toward Pro-AMC in comparison to Leu-MCA used as a standard: substrate Pro-AMC 5 mM; for hydrolytic activity toward Pyr-AMC in comparison to Leu-MCA used as a standard: substrate Pyr-AMC 5 mM; for hydrolytic activity toward Ser-AMC in comparison to Leu-MCA used as a standard: substrate Ser-AMC 5 mM; for hydrolytic activity toward Thr-AMC in comparison to Leu-MCA used as a standard: substrate Thr-AMC 5 mM; for hydrolytic activity toward Val-AMC in comparison to Leu-MCA used as a standard: substrate Val-AMC 5 mM

Molecule | digestion of gliadin 33mer, enzyme alone [2] | hydrolytic activity toward Lys(Abz)Pro-PropNA in comparison to Leu-MCA used as a standard [3] | hydrolytic activity toward Ala-AMC in comparison to Leu-MCA used as a standard [4] | hydrolytic activity toward Arg-AMC in comparison to Leu-MCA used as a standard [4] | hydrolytic activity toward Asn-AMC in comparison to Leu-MCA used as a standard [4] | hydrolytic activity toward Asp-AMC in comparison to Leu-MCA used as a standard [4] | hydrolytic activity toward Cys-AMC in comparison to Leu-MCA used as a standard [4] | hydrolytic activity toward Gln-AMC in comparison to Leu-MCA used as a standard [4] | hydrolytic activity toward Glu-AMC in comparison to Leu-MCA used as a standard [4] | hydrolytic activity toward Gly-AMC in comparison to Leu-MCA used as a standard [4] | hydrolytic activity toward Gly-Pro-AMC in comparison to Leu-MCA used as a standard [4] | hydrolytic activity toward His-AMC in comparison to Leu-MCA used as a standard [4] | hydrolytic activity toward Hyp-AMC in comparison to Leu-MCA used as a standard [4] | hydrolytic activity toward Ile-AMC in comparison to Leu-MCA used as a standard [4] | hydrolysis of Leu-AMC [4] | hydrolytic activity toward Leu-AMC in comparison to Leu-MCA used as a standard [4] | hydrolytic activity toward Lys-AMC in comparison to Leu-MCA used as a standard [4] | hydrolytic activity toward Met-AMC in comparison to Leu-MCA used as a standard [4] | hydrolytic activity toward Phe-AMC in comparison to Leu-MCA used as a standard [4] | hydrolytic activity toward Pro-AMC in comparison to Leu-MCA used as a standard [4] | also measured
ruDPPIV: T. rubrum dipeptidylpeptidase IV (SEQ ID NO: 35) | not a substrate | – | – | – | – | – | – | – | – | – | – | – | – | – | – | – | – | – | – | – | digestion of gliadin 14mer, enzyme alone [1]: not able to hydrolyse
B1 | – | 0.0% | 11.7% | 2.3% | 73.5% | 0.3% | 2.1% | 37.0% | 1.1% | 2.2% | 74.1% | 1.9% | 13.3% | 1.8% | efficiently hydrolyzed; also recorded: common preference | 100.0% | 2.3% | 89.5% | 8.9% | 7.4% | hydrolytic activity toward Pyr-AMC in comparison to Leu-MCA used as a standard [4]: 0.0%; hydrolytic activity toward Ser-AMC in comparison to Leu-MCA used as a standard [4]: 10.3%; hydrolytic activity toward Thr-AMC in comparison to Leu-MCA used as a standard [4]: 0.1%; hydrolytic activity toward Val-AMC in comparison to Leu-MCA used as a standard [4]: 0.8%; digestion of gliadin 33mer, mixed with ruDPPIV [2]: same HPLC pattern
B2 | partial deletion of N-terminal Leu and C-terminal Phe | 0.0% | 584.7% | 174.8% | 33.9% | 0.9% | 35.5% | 50.7% | 4.7% | 74.8% | 16.7% | 17.6% | 1.7% | 6.3% | efficiently hydrolyzed; also recorded: common preference | 100.0% | 70.1% | 46.1% | 184.4% | 7.9% | hydrolytic activity toward Ala-AMC ([4]; compared to Leu-AMC): extremely high efficiency; hydrolytic activity toward Arg-AMC ([4]; compared to Leu-AMC): extremely high efficiency; hydrolytic activity toward Pyr-AMC in comparison to Leu-MCA used as a standard [4]: 0.0%; hydrolytic activity toward Ser-AMC in comparison to Leu-MCA used as a standard [4]: 24.6%; hydrolytic activity toward Thr-AMC in comparison to Leu-MCA used as a standard [4]: 4.4%; hydrolytic activity toward Val-AMC in comparison to Leu-MCA used as a standard [4]: 4.0%; digestion of gliadin 33mer, mixed with ruDPPIV [2]: does not modify the profile
